Settings in all cases: other: raw extract (cell lysate), 25 °C, 20 mM L-glutamine, 10 mM MgCl2, chorismate as substrate
Substrate in series [1]: C=C(O[C@@H]1C=C(C(=O)O)C=C[C@H]1O)C(=O)O
The series is described as follows: cells, lysate or membranes.

Substrate in series [2]: C=C(O[C@@H]1C=C(C(=O)O)C=C[C@H]1O)C(=O)O
The series is described as follows: Anthranilate synthase activity in cell lysate of C. glutamicum ΔtrpD/pEKEx2-trpEG^S38F (KM and vmax). Type of series: biochemical, Corynebacterium glutamicum ATCC 13032. An excerpt:
(§1) In more specific embodiments of the recombinant microbial host cell of invention, the Corynebacterium glutamicum microbial host cell, preferably Corynebacterium glutamicum ATCC 13032, can further overexpress one or more of the genes selected from the group consisting of galP (SEQ ID NO: 30), iolT2 (SEQ ID NO: 31), ppgk (SEQ ID NO: 32), pps (SEQ ID NO: 33-35), ppk (SEQ ID NO: 36), zwfl (SEQ ID NO: 37), opcA (SEQ ID NO: 38-39), tktCg (SEQ ID NO: 40), tktEc (SEQ ID NO: 41), talCg (SEQ ID NO: 42), tame (SEQ ID NO: 43), a gene encoding TrpEGS38F (trpEG^S38F, SEQ ID NO: 50), a gene encoding TrpEGS38R (trpEG^S38R, SEQ ID NO: 51), a gene encoding TrpEGS40R (trpEG^S40R, SEQ ID NO: 52), a gene encoding TrpEGS40F (trpEG^S40F, SEQ ID NO: 53), the gene encoding AroGD146N (aroG^D146N, SEQ ID NO: 55), aroL of Escherichia coli LJ110 (SEQ ID NO: 93), aroK (SEQ ID NO: 94), glnA (SEQ ID NO: 95), and qsuA (SEQ ID NO: 96). […]

Substrate in series [3]: C=C(O[C@@H]1C=C(C(=O)O)C=C[C@H]1O)C(=O)O
The series is described as follows: Anthranilate synthase activity in cell lysate of C. glutamicum ΔtrpD/pEKEx2-trpEG^S38R (KM and vmax). In kind it is biochemical, Corynebacterium glutamicum ATCC 13032.
Text: as §1

Substrate in series [4]: C=C(O[C@@H]1C=C(C(=O)O)C=C[C@H]1O)C(=O)O
The series is described as follows: Anthranilate synthase activity in cell lysate of C. glutamicum ΔtrpD/pEKEx2-trpEG^S40F (KM and vmax). Type of series: biochemical, E. coli.
Text: as §1

Substitutions are numbered along the chain they refer to. Names and notes keep the numbering of the source.

B1: Corynebacterium glutamicum ATCC 13032 TrpEG (anthranilate synthase), natural (wild type, Cgl3029/31) (Corynebacterium glutamicum ATCC 13032) (protein)
chain: MSTNPHVFSLDVRYHEDASALFAHLGGTTADDAALLESADITTKNGISSLAVLKSSVRITCTGNTVVTQPLTDSGRAVVARLTQQLGQYNTAENTFSFPASDAVDERERLTAPSTIEVLRKLQFESGYSDASLPLLMGGFAFDFLETFETLPAVEESVNTYPDYQFVLAEIVLDINHQDQTAKLAGVSNAPGELEAELNKLSLLIDAALPATEHAYQTTPHDGDTLRVVADIPDAQFRTQINELKENIYNGDIYQVVPARTFTAPCPDAFAAYLQLRATNPSPYMFYIRGLNEGRSYELFGASPESNLKFTAANRELQLYPIAGTRPRGLNPDGSINDELDIRNELDMRTDAKEIAEHTMLVDLARNDLARVSVPASRRVADLLQVDRYSRVMHLVSRVTATLDPELDALDAYRACMNMGTLTGAPKLRAMELLRGVEKRRRGSYGGAVGYLRGNGDMDNCIVIRSAFVQDGVAAVQAGAGVVRDSNPQSEADETLHKAYAVLNAIALAAGSTLEVIR
By Vmax is commonly meant the rate approached at saturating substrate. For the protein B1, in series [1], the Km stood at 11.4 µmol and the Vmax was 0.0127 µmol/min/mg.

B2: Corynebacterium glutamicum TrpEG (anthranilate synthase) variant TrpEGS38F, mutation S38F (SEQ ID NO: 50 in b85; SEQ ID No. 52-53 in b196) (Corynebacterium … (protein)
chain: B1 chain with S38F
Regarding B2, in series [2], the Km came out at 16.2 µmol and the Vmax came to 0.0688 µmol/min/mg.

B3: Corynebacterium glutamicum TrpEG (anthranilate synthase) variant TrpEGS38R, mutation S38R (SEQ ID NO: 51 in b85; SEQ ID No. 52-53 in b196) (Corynebacterium … (protein)
chain: B1 chain with S38R
In the case of B3, in series [3], the Km turned out to be 21.6 µmol and the maximum rate (Vmax) worked out at 0.231 µmol/min/mg.

B4: E. coli TrpEG (anthranilate synthase) variant TrpEGS40F, mutation S40F (SEQ ID NO: 53 in b85; SEQ ID No. 50-51 in b196) (Escherichia coli K-12; S40F) (protein)
chain: MQTQKPTLELLTCEGAYRDNPTALFHQLCGDRPATLLLEFADIDSKDDLKSLLLVDSALRITALGDTVTIQALSGNGEALLALLDNALPAGVESEQSPNCRVLRFPPVSPLLDEDARLCSLSVFDAFRLLQNLLNVPKEEREAMFFGGLFSYDLVAGFEDLPQLSAENNCPDFCFYLAETLMVIDHQKKSTRIQASLFAPNEEEKQRLTARLNELRQQLTEAAPPLPVVSVPHMRCECNQSDEEFGGVVRLLQKAIRAGEIFQVVPSRRFSLPCPSPLAAYYVLKKSNPSPYMFFMQDNDFTLFGASPESSLKYDATSRQIEIYPIAGTRPRGRRADGSLDRDLDSRIELEMRTDHKELSEHLMLVDLARNDLARICTPGSRYVADLTKVDRYSYVMHLVSRVVGELRHDLDALHAYRACMNMGTLSGAPKVRAMQLIAEAEGRRRGSYGGAVGYFTAHGDLDTCIVIRSALVENGIATVQAGAGVVLDSVPQSEADETRNKARAVLRAIATAHHAQETF
Turning to B4, in series [4], the Vmax was 0.427 µmol/min/mg.

The values are drawn from US10731187B2, “Recombinant strain producing O-aminobenzoate and fermentative production of aniline from renewable resources via 2-aminobenzoic acid” (Covestro Deutschland AG, priority 2014, dated 2020).
